A protein production outcome set (Wang et al. 2014)

Test: label from the status in PepcDB records
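Note: failed if final PepcDB status was selected cloned or expressed and not failed if soluble or beyond.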

Sequence	protein production
MSRTLVLFDIDGTLLKVESMNRRVLADALIEVYGTEGSTGSHDFSGKMDGAIIYEVLSNVGLERAEIADKFDKAKETYIALFRERARREDITLLEGVRELLDALSSRSDVLLGLLTGNFEASGRHKLKLPGIDHYFPFGAFADDALDRNELPHIALERARRMTGANYSPSQIVIIGDTEHDIRCARELDARSIAVATGNFTMEELARHKPGTLFKNFAETDEVLASILTPKHS	not failed
MSRTTPYRLDDQIGFILRQANQRYAALFANGIGNGLTPTQWAALVRLGETGPCPQNQLGRLTAMDAATIKGVVERLDKRGLIQRSADPDDGRRLLVSLSPAGRAELEAGLAAAREINRQALAPLSLQEQETLRGLLARLI	not failed
MSRVQMDTEEVREFVGHLERFKELLREEVNSLSNHFHNLESWRDARRDKFSEVLDNLKSTFNEFDEAAQEQIAWLKERIRVLEEDY	not failed
MSRYIEAGLSDIGTLGEYVAERPNKGFEPARRRAGVSHTTVSGPKLAVAVMAVSAVCCPCGCQCVLVTPLSPRSFTLCAHIIDTMNTLVDGEWRTDAYETTNEDGAFDRQDTTFRDRVEDDPDARFQPEAGRYHLYACRACPWAHRILVARKLLGLEDAITVDYVDPFRGEDGWQFTPEKAGCTPDTVNGSDYLREVYVEADPDATCRVTVPVLWDKQEETIVNNESEEILRMLDTEFDDVSDNDVDLYPEGYQDEVDRIIDDIYEPINNGVYRSGFADSQSAYDEAVEELFDALDHWDTVLEDQRFLAGDRLTEADICLFTTLVRFDEVYHTHFMCNHKLIREYDNLWPYLRDLYQLPGVAETVNMDHITEHYYTTHPDVSPKRIVPMGPDPDFEAVHDRDELPGDLPETLFPTA	failed
MSSACDAGDHYPLHLLVWKNDYRQLEKELQGQNVEAVDPRGRTLLHLAVSLGHLESARVLLRHKADVTKENRQGWTVLHEAVSTGDPEMVYTVLQHRDYHNTSMALEGVPELLQKILEAPDFYVQMKWEFTSWVPLVSRICPNDVCRIWKSGAKLRVDITLLGFENMSWIRGRRSFIFKGEDNWAELMEVNHDDKVVTTERFDLSQEMERLTLDLMKPKSREVERRLTSPVINTSLDTKNIAFERVFRVLKLTLLQLTVCS	failed
MSSAQVNGISKRLIVESPNVKLEDGVLESRFTYRKNHFEHRADGLHVTPKEHDYSFKTVLKPRKTGLLLVGLGGNNGSTAVGSIFANQYAMTWRTKEGHSQANYFGSVTQTATVHLGYDSATQNQIFVPFKDIVPILSPNDLIISGWDISDSNLYEAMGRAKVFEPELQEKLRPFMEPIVPLPSIYYPDFIASNQGDRANNVIPGDNKLEHLEHIRADIRKFKQEHELECVIVLWTANTERYTDVRQGLNATADEIMESIRVNEDEVSPSNIFAVASILEGAHYINGSPQNTLVPGLIELAERHKVFVGGDDFKSGQTKFKSAFVDFLVSSGMKPESIVSYNHLGNNDGKNLSEARQFRSKEISKSSVVDDMVKSNQILFPDAKNPDYCVVIKYVPYVADSKRAMDEYICSIFMGGKQTFVVHNTCEDSLLASPLIYDLAILTELASRVSYKVDDEYKPFHSVLSILSLLLKAPVVPPGTPISNAFMRQFSTLTKLVTALAGFPSDTDMQIEFFTQLPAAKSKSQ	not failed
MSSARLVIAGLNGGTGKTILSLGTVRALTNAGHSVKPFKKGPDYIDAEWLGLAAGRAATNLDPFFLDAARLQSLFLHASAGASISIIEGNRGLYDGRDVTGSCSTAELARILDSPVVLAMDCTKMTRTAAAILSGVAAFEPGVKLAGVVLNRTANERHRSMLRQCIEHYTDIPVLGALPRLRDNPIPERHMGLVSDREFAQCAGELDRVAQFVAQHVDVERMAEIARSAQPLASNEPFWPVVAEGDGVRPRIGYVRDAALWFYYEENLEALRQAGADLVELRIIDGDPWPTLDGLYLGGGFPETLASELSACRERLAGIREAALAGLPVYAECGGFMVLGESIVMDGVEYPMSGVFPVQTVFHPKPQGLGYVEAEVVAENPFFPQGMVFRGHEFHYSACRPRDGGAVTHALRLNPGTGMGGGADGLVQANTFAAYTHIFGPAVQGWAERFVRAARGHRDQLNKGTDLSLEHHHHHH	failed
MSSCCAAEAKNASERKLLWIVLILNFSMFVIEFIAGWLANSSGLLADSLDMLADAAVYSLSLYAVGKSLLYKGRAALANGYLQLSLGLLVLVDVARRIWLGSEPQSELMLSIGFMALIVNMICFVLLYQFRQGDVNLKASWICSRNDMLANIGIIISAVLVGQFDAAWPDWVIGSVIAGIVIHSSLAIINEAKVSIQSDAVADKNRT	failed
MSSCGCAYDILKYQLVIKGNRFNEESEQSMTETTENTVNLPYRNPKLPTEERIADLLGRMTLEEKVGQMMQLDARSGDLDDLIVNKHVGSILHTSPSDLPKAVETVNAKTRLGIPLVIGDDCIHGYSFWPGATIFPEQLGMATTWDSEKVQAAGRATAEEVSATGVHWTFSPVLCIARDTRWGRVGETFGEDPYLIGEMASSIVKGYQGGAKAGEPLAKDAILACAKHFAGYSETQGGRDASEADLSHRKLESWFLPPFERVAKEGCGTFMLGYESIEGVPVTFNKWLLSDKLRGAWNYQGTLITDWDNVGRSVWEQKVKPDYVQAAADAVKSGNDLVMTTPKFYEGAIEAVKTGLLDESLIDAAVARILALKFRLGLFEDPRLPDQKRIDAVIGSEEHQQLNLEVAREAVALLKNDGSLPFNVAGAKRIAVVGPLADDVQTQLGDWAGSSGQINWMPDGHPREMITTVLDGFKQLAPEGCEVVYSRGANIVDLVPDPEGEFYPDGQPRPKIGVSAKIDRALLGEAVENARKSDLIVAVVGDVIQAIGEGCSTATLELLGGQNALIDALSNVARETGKPFVVVLVSSKPQVLPASVIGTNGVIVDETPAEGTSALLWAPSPGMKGGQAIAEIILGETEPSGRLPITFPRHAGQLPVYYNQIRGQHGNRYADLTQNPAFAFGEGLSYTTFEYGDPTITNVPESGIFAETDTVHAEITLTNTGDRKGTEVVQLYIGDIVTSYSWTDRELKAFQRVELEPGKSKTVAFDIPVSDCTIVDSEANRIVEPGEFEVLIGHSSRREHLKRTTFTVA	failed
MSSDAVSKYTPGIYRTSIRLNNNTFDVEVTVDQDQIQSIHLANLSESTSAMFPLVEPVLDSLSSQIYSGQSLDDLEYSSDQKYTALMLIHAIDEAVTKAEADLEHHHHHH	not failed
MSSFFSVLLVLGGLIFFHELGHYLAARVLGIGVHTFSLGFGPRIFGWRSGQTDYRLSLIPLGGYVSLAGESDDEIPEGFTKGQMFSARPAWHRLIVIAAGPVFNLLLAWFIYWGLTFVHGQFIVLPEVGKVLEGGPAAAAGVQSGDRIVAIDGVSIERWDQVSDAIAASKGAPVTLSLTRNEGQHELRIVPEHRTRKTIFGDEEDAFLIGIQASGATMTLPQTPVEAAVTGARQTWTMIAMTGKGVVKLFERVVPLDTVGGPIMIAQMVSREAKDSGITGVLALAALISINLGLLNLLPIPVLDGGHIIFLGLEMLFRRPVPQKVQEVTTRMGLVLLLGLMFLATYNDIVRIGQ	failed
MSSKNTAEVILGGKVIKLGGYESEEYLQRVASYINNKITEFNKEESYRRMSAELRTDMMYLNIADDYFKAKKMADSLSLDIENKDKEIYDLKHELIAAQIKAESSAKEIKELKSEINKYQKNIVKLETELNDSKK	not failed
MSSLLYARVRANARFQQLVARRNRFTLSLFVLILATFYGYIGLVSFWPELIARRLAQGSNMTVGVAAGAFLFVFFCALSAFYVYRANGEFDSLTQALLSGLEEEQGA	failed
MSSLTARWHRSIQEIPEQHWQALVSDHAIPFYRWSWLEALESSGSIIPEQGWQPLHLALWRGDVPIAVAPLYLKGHSYGEFVFDQTFARLAGDLGLRYYPKLLGMSPVSPVLGYRFHVLPGEDEAELTAVLLRAIDAFCEHNSILSCNFLYVDPQWRPLAEAAGCATWLNQQSLWSRGDDQSFDDYLNGFNANQRRNIKRERKAVAKAGLTVTPLTGEQLDLELFQIMHGFYEQHCARWGPWGSKYLEQGFFEALAGLHREQVVLFSAHRGDPREPVAMSMCVRDDHHLWGRYWGSEEEIDCLHFEVCYYAPIEWAISQGIDSFDPGAGGSHKRRRGFVARPHASLHRWYQPQMDGLIRAWLPKVNGLMLEEIEAINAELPFKADAPSLSL	failed
MSSMYTTFAEQYDNVVQDNIYNAYLERPSLQAMLGDVNGCDVIDLGCGSGVYADYFIHRGVAKLTCIDYSPNMIEIVKRKFGDRVTAYAQDASIGLIKEASESADLIISPLMIHYLEDLSVLFNDVARVLKNGGNFAFSTHHPFADFECTLSGNYFEREFITEMWNTVGEPVEVTFYRRSLTEIMNAITDSGLVVTQLSEGKVAEEVKQISLEKYEYLSKNPNFIFIKCQKLV	failed
